Results taken from publication PMC3706390.

Tests used:
[1] = biological target: T1, L30 (ribosomal protein L30) wild-type (rat, UniProt P62890 1-115); test: EMSA; 5 mM Mg2+; 30 mM Tris-HCl pH 8.0, 75 mM KCl, 5 mM MgCl2, 1 mM DTT, 0.04 ug/uL BSA, 10% glycerol, 50 ng/uL yeast tRNA, 30 C 15 min; EMSA gels 0.5X TBE at 4 C; RNase digesti
[2] = biological target: T1, L30 (ribosomal protein L30) wild-type; test: UV cross-linking; 30 mM Tris-HCl pH 8.0, 75 mM KCl, 5 mM MgCl2, 1 mM DTT, 0.04 ug/uL BSA, 10% glycerol, 50 ng/uL yeast tRNA, 30 C 15 min; EMSA gels 0.5X TBE at 4 C; RNase digesti

| Binder | Kd [1] [nM] | binding result [2] |
| --- | --- | --- |
| GGGACCGGAGUGUCGCAAGACGCAGAGAUGGUCC (structured_RNA) [L30 RNA (stem-loop of L30 pre-mRNA)] | 170 | – |
| PHGPx SECIS wild-type (UV cross-linking) (structured_RNA) RNA: CUGCCCUGUGACCCCUGGAGCCUUCCACCCCGGCACUCAUGACGGUCUGCCUGAAAACCAGCCCGCUGGUGGGGCAGUCCCGAGGACCUGGCGUGCAUCCCCGCCGGAGGAAGGUCCAGACGCUGUGGCC | – | binds |
| PHGPx SECIS U40C (structured_RNA) RNA: CUGCCCUGUGACCCCUGGAGCCUUCCACCCCGGCACUCACGACGGUCUGCCUGAAAACCAGCCCGCUGGUGGGGCAGUCCCGAGGACCUGGCGUGCAUCCCCGCCGGAGGAAGGUCCAGACGCUGUGGCC | – | no binding |
